# From patent US10428347B2, “Herbicide-detoxifying enzymes and uses thereof” (priority 2017, dated 2019)
# B1: ChD: chlorothalonil dehalogenase from Pseudomonas species strain CTN-3, amino acid SEQ ID NO: 168 (protein, listed as Pseudomonas sp.)
# chain: MPPGCSGLCSFVGLTMPLKFSGVLCASLLTITLSVAAHATELILDFNKVQMRSQQLAPGVYAHLPADSAELNAKGGVAGTSGGLIVGTRGAMLIETMLNRRLFDQVQALAKKEALGLPLLYAVNTSYHGDHSYGNMYLKAPTRVIQSTKTRDYVDGHLADDKAFMVKNFGAGRGVEQITARTGDILVPPGGRVSVDLGGKTVEIIDFGFAQTGGDLFVWEPQSKVMWTGNAVVASKPALPWLLDGKLVETLATLQKVYDFLPPDATIVPGHGVPMAREGLRWHLDYLAAVQAGVKDALARKLSLEQTVTELKMPEFRGYVLFDWVHPDLNVPAAYKDLAARP
# Legend:
# [1] = Absorbance spectra assay of mecoprop degradation by ChD or CAC; type: biochemical; settings: one hour at 37° C.
# Method: (§1) Small scale (1 mL) assays were performed to evaluate the ability of ChD and CAC to degrade MCPA-4 amine or mecoprop.
# (§2) MCPA-4 amine and mecoprop have absorbance maxima (Amax) at approximately 230 and 280 nm. […] MCPA-4 amine or mecoprop end product generation is directly proportional to the degradation MCPA-4 amine or mecoprop, respectively.
# [2] = Absorbance spectra assay of 2,4-D degradation by ChD or CAC; type: biochemical; settings: one hour at 37° C.
# [3] = tested on: soybean; experiment: Spray tank dicamba treated with ChD crude cell lysate, applied to field soybean; type: in vivo; settings: field soybean V2-V3, 2 ml of tank sample (about 200 mg/L dicamba, with or without 5% v/v crude cell lysate for 10 minutes), one week after application (FIG. 15)
# Method: Chlorothalonil dehalogenase (ChD, SEQ ID NO: 168) was prepared as a crude cell lysate as described above in Example 5. […] A 5% v/v solution of the crude cell lysate containing the ChD enzyme was added and the tank was run for an additional 10 minutes. […] Each of the samples was frozen immediately after collection from the tank. Samples were transported to the field on ice to ensure that enzyme activity was halted.
# [4] = Absorbance spectra assay of MCPA-4 amine degradation by ChD or CAC; type: biochemical; settings: one hour at 37° C.
# Method: as §1, §2
# [5] = Absorbance spectra assay of dicamba degradation by ChD or CAC; settings: dicamba 200 mg/L + enzyme at 20X dilution (5 μM), one hour at 37° C.
# [6] = Sequestration of dicamba by ChD (3 kDa filter, absorbance at 230 nm); type: binding; settings: dicamba 100 mg/L, 10, 20, 30 and 40 uL enzyme solution, 5 minutes at 37° C. (FIG. 18)
# Method: To four of the tubes, enzyme solution was added to four of the tubes at 10, 20, 30, and 40 uL rates. The two tubes without the enzyme solution served as controls for the experiment. When the enzyme was added, five of the tubes (one of the 0 uL enzyme tubes, and all of the tubes with the enzyme added) were placed in the Eppendorf Thermomixer R for 5 minutes, at 37° C., and 800 rpm. After the incubation period, the tubes were removed from the heat and placed on ice to stop the reaction. […] These new tubes were spun at 1400 rpm for five minutes. When the spin was completed, 100 uL of the top and bottom fractions were added into a 96-well UV-Star plate. Spectral readings were then taken from 200 nm to 340 nm. The reads for the buffer alone controls were subtracted from the experimental values. The relative difference between the control without enzyme added and the experimental samples with enzyme added was calculated at 230 nm.
molecule,measurement,setting,value
B1,Percent (%) increase in 252 λ (end-product formed) compared to Mecoprop control,[1]; mecoprop 200 mg/L + enzyme at 20X dilution (5 μM),164%
same,Percent (%) increase in 252 λ (end-product formed) compared to Mecoprop control,[1]; mecoprop 200 mg/L + enzyme at 40X dilution ([…]),129%
same,"Percent (%) increase in 252 λ, (end product formed) compared to 2,4-D control","[2]; 2,4-D 200 mg/L + enzyme at 20X dilution (5 μM)",196%
same,"Percent (%) increase in 252 λ, (end product formed) compared to 2,4-D control","[2]; 2,4-D 200 mg/L + enzyme at 40X dilution ([…])",122%
same,damage to or protection of soybean crop (size and growth vs untreated control),[3],almost complete protection of the plants
same,Percent (%) increase in 252 λ (end product formed) compared to MCPA-4-Amine control,[4]; MCPA-4 amine 200 mg/L + enzyme at 20X dilution (5 μM),464%
same,Percent (%) increase in 252 λ (end product formed) compared to MCPA-4-Amine control,[4]; MCPA-4 amine 200 mg/L + enzyme at 40X dilution ([…]),128.9%
same,Percent (%) increase in 259 λ (end product formed) compared to dicamba control,[5],501%
same,dicamba in a bound state (relative absorbance at 230 nm of 3 kDa filter fractions),[6],dose-dependent effect
